The numbers were not newly measured in patent US20230313258A1, “CROSS-LINIKING METHODS” (The University of Bath, priority 2020, published 2023), which cites them from elsewhere.

The target in this data set is dimeric AP-1 transcription factor (Homo sapiens, UniProt P05412). As to conditions: previously identified (Mason et al. 2006).
dimeric AP-1 transcription factor, sequence (P05412 whole entry): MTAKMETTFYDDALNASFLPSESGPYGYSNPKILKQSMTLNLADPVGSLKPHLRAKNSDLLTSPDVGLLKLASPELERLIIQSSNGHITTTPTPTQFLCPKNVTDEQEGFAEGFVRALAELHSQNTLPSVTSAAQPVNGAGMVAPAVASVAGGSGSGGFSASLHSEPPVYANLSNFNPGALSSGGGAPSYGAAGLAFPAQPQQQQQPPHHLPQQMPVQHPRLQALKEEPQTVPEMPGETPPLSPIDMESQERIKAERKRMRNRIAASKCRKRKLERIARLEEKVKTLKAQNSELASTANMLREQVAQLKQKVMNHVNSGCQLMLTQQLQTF

Consider “FosW: parent peptide, SEQ ID NO: 1, ASLDELQAEIEQLEERNYALRKEIEDLQKQLEKLGAP; previously identified inhibitor of AP-1”, for which the “ability to dissociate AP-1 from its DNA binding site” value was “able to dissociate the dimeric AP-1 transcription factor from its DNA binding site”.
